Reference: patent US20210324102A1 (ACROIMMUNE BIOTECH, published 2021)

How the values were obtained:
[1] = target: human CD38 on cells (CHO-hCD38 / wild-type, and human tumor cell lines with positive CD38 expression) (human, UniProt P28907 1-300); test: cell-based or functional assay
[2] = target: T1, cynomolgus macaque CD38 on CHO cells (CHO-cynomolgus CD38) (cynomolgus macaque, UniProt Q5VAN0 1-301); test: flow cytometry on CHO-cynomolgus CD38 cells
T1 construct: whole, on cells; also called CHO/mkCD38; mkCD38

[3] = target: T2, recombinant cynomolgus macaque CD38-his protein (Sino Biological Inc.) (cynomolgus macaque, UniProt Q5VAN0 44-301, limits assumed); test: direct ELISA, plate coated with recombinant cynomolgus macaque CD38-his protein
T2 construct: Bought protein; also called recombinant cynomolgus macaque CD38 protein; cynomolgus macaque CD38 protein; not shown: his tag

| EC50 of CDC activity, Daudi target cells, 10% rabbit serum [1] | binding result [2] | binding result [3] | Binder |
| --- | --- | --- | --- |
| ~0.03 µg/mL | binds |  | murine monoclonal antibody m29 (antibody, mouse IgG2b, V domains shown, also called mouse monoclonal antibody m29; m29 monoclonal antibody) VH: QVQLQQSVSELRSPGSSVKLSCKDFDSEVFPTSYMSWVRQKPGHGFEWIGDILPNIGRIFYGEKFEDKAKLDADTVSNTAYLELTSLSSEDSAIYYCAREAYGSILGYWGQGTLVAVSA VL: DIVMTQTPLSLPVGLGDQASISCRSSQSLLHSNGNTYLHWYLQKPGQSPKLLIYKVSNRFSGVPDRFSGSGSGTDFTLKISRVEAEDLGVYFCSQSSHLPWTFGGGTKLEIK |
| ~0.03 µg/mL | binds | binds | human-mouse chimeric antibody ch29G (antibody, V domains shown, not shown: human IgG1 heavy chain constant region; human kappa light chain constant region (C-domain)) VH: QVQLQQSVSELRSPGSSVKLSCKDFDSEVFPTSYMSWVRQKPGHGFEWIGDILPNIGRIFYGEKFEDKAKLDADTVSNTAYLELTSLSSEDSAIYYCAREAYGSILGYWGQGTLVAVSA VL: DIVMTQTPLSLPVGLGDQASISCRSSQSLLHSNGNTYLHWYLQKPGQSPKLLIYKVSNRFSGVPDRFSGSGSGTDFTLKISRVEAEDLGVYFCSQSSHLPWTFGGGTKLEIK |
| 0.1 µg/mL |  |  | Daratumumab (antibody, V domains shown) VH: EVQLLESGGGLVQPGGSLRLSCAVSGFTFNSFAMSWVRQAPGKGLEWVSAISGSGGGTYYADSVKGRFTISRDNSKNTLYLQMNSLRAEDTAVYFCAKDKILWFGEPVFDYWGQGTLVTVSS VL: not shown |
